Measurements as given in EP4755915A1 (Medytox Inc., dated 2026).

B1: mAb192 C IgG2/4 (antibody)
heavy: DIQMTQSPPSLSASLGDKVTITCQASQDINKYIAWYQQKPGKAPRQLIRYTSILVLGTPSRFSGSGSGRDFSFSISNVASEDIASYYCLQYGNLYTFGAGTKLEIKRSSASTKGPSVFPLAPCSRSTSESTAALGCLVKDYFPEPVTVSWNSGALTSGVHTFPAVLQSSGLYSLSSVVTVPSSNFGTQTYTCNVDHKPSNTKVDKTVERKCCVECPPCPAPPVAGPSVFLFPPKPKDTLMISRTPEVTCVVVDVSQEDPEVQFNWYVDGVEVHNAKTKPREEQFNSTYRVVSVLTVLHQDWLNGKEYKCKVSNKGLPSSIEKTISKAKGQPREPQVYTLPPSQEEMTKNQVSLTCLVKGFYPSDIAVEWESNGQPENYKTTPPVLDSDGSFFLYSRLTVDKSRWQEGNVFSCSVMHEALHNHYTQKSLSLSLGK
light: QVQLLESGPGLVQPSQTLSLTCTVSGFSLTTNGVSWVRQPPGKGLEWIAAISSGGSPYYNSALKSRLSINRDTSKSQVFLKMNSLQTEDTAIYFCTREDGWNYFDYWGPGTMVTVSSASVAAPSVFIFPPSDEQLKSGTASVVCLLNNFYPREAKVQWKVDNALQSGNSQESVTEQDSKDSTYSLSSTLTLSKADYEKHKVYACEVTHQGLSSPVTKSFNRGEC
B2: mAb192 C IgG1 (antibody)
heavy: not shown
light: B1 light
B3: mAb192 C IgG4 (antibody)
heavy: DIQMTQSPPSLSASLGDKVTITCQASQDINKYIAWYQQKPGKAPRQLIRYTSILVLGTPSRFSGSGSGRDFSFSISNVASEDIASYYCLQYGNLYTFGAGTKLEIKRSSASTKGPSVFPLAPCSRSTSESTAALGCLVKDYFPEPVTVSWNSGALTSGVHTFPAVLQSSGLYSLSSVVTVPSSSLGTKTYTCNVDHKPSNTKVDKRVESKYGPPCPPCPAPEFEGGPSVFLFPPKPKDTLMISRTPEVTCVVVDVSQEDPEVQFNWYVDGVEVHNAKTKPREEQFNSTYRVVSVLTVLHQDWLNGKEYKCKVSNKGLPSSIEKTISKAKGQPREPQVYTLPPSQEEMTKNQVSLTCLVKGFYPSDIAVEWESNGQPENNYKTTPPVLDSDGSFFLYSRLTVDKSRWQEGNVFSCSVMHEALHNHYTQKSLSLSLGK
light: B1 light
B4: mAb637 B (antibody, human IgG2, kappa)
heavy: NFELTQPHSVSESPGKTVTISCTRSSGSIASNYVQWYQQRPGSSPTTVIYEDNQRPSGVPDRFSGSIDSSSNSASLTISGLKTEDEADYYCQSYDSNSGGRVFGGGTKLTVLRTVAAPSVFIFPPSDEQLKSGTASVVCLLNNFYPREAKVQWKVDNALQSGNSQESVTEQDSKDSTYSLSSTLTLSKADYEKHKVYACEVTHQGLSSPVTKSFNRGECERKCCVECPPCPAPPVAGPSVFLFPPKPKDTLMISRTPEVTCVVVDVSQEDPEVQFNWYVDGVEVHNAKTKPREEQFNSTYRVVSVLTVLHQDWLNGKEYKCKVSNKGLPSSIEKTISKAKGQPREPQVYTLPPSQEEMTKNQVSLTCLVKGFYPSDIAVEWESNGQPENYKTTPPVLDSDGSFFLYSRLTVDKSRWQEGNVFSCSVMHEALHNHYTQKSLSLSLGK
light: QVQLLESGGGLVKPGGSLRLSCAASGFKSTDYYMAWVRQAPGRGLEWVSFISGRVFTNYTASVRGRFTVFREDDNTSVYLQMSRLRVEDTAVYYCARLRGIFRGPLKPLEYYFDLWGRGTLVTVSSASTKGPSVFPLAPCSRSTSESTAALGCLVKDYFPEPVTVSWNSGALTSGVHTFPAVLQSSGLYSLSSVVTVPSSNFGTQTYTCNVDHKPSNTKVDKTV
notes: also called candidate antibody

What was measured:
[1] = molecular target: AChR (A, B, D and E) expressed on recombinant 293T cells; assay: cell-based or functional assay
[2] = molecular target: T1, fetal acetylcholine receptor (AChR) on the cell membrane of TE671 cells (human, UniProt P02708 21-457; P11230 24-501; Q07001 22-517; P07510 23-517); assay: flow cytometry competition on TE671 cells expressing fetal AChR; competitor biotinylated mAb637 at 8 µg/ml, detected with labelled streptavidin
T1 construct: whole, on cells; The subunit make-up (alpha2, beta, gamma, delta) is general knowledge of the fetal receptor; also called autoantigen AChR
T1 sequence (P02708 21-457, chain 1 of 4): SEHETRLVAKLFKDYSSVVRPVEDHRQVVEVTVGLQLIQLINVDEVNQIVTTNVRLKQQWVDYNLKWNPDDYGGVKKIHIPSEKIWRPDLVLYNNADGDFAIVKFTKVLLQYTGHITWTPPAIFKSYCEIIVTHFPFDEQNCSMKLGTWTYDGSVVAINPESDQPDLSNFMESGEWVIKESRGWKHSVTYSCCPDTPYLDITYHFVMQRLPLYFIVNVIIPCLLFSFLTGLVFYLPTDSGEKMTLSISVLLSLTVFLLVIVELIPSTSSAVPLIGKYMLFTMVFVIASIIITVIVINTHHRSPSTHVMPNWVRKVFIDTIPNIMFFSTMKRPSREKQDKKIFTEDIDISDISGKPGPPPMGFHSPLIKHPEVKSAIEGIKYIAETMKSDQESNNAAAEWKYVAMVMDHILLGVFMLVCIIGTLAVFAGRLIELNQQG
T1 sequence (P11230 24-501, chain 2 of 4): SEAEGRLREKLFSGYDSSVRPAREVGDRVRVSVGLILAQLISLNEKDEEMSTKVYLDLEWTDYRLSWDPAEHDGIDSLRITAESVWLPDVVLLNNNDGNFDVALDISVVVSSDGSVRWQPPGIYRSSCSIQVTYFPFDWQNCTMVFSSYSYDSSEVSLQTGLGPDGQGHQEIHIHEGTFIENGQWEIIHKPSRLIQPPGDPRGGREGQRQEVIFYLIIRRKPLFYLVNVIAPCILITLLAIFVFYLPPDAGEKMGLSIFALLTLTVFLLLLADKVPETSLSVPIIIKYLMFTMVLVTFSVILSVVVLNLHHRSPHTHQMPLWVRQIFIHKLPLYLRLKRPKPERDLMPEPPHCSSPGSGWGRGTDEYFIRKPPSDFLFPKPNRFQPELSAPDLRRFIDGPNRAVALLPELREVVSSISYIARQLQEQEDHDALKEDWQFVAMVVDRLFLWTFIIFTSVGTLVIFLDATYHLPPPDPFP
T1 sequence (Q07001 22-517, chain 3 of 4): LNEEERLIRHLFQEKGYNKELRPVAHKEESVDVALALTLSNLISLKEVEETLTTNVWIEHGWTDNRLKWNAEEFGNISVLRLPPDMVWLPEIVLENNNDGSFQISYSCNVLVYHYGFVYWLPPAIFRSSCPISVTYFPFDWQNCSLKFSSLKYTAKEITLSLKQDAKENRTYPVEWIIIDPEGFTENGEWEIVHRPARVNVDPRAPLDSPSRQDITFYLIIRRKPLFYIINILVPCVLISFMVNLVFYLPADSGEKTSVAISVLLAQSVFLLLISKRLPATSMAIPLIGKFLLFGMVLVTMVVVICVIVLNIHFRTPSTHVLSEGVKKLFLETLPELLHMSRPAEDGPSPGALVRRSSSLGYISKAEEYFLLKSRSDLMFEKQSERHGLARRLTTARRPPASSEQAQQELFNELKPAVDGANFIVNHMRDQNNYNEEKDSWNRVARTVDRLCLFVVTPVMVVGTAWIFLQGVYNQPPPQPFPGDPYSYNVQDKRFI
T1 sequence (P07510 23-517, chain 4 of 4): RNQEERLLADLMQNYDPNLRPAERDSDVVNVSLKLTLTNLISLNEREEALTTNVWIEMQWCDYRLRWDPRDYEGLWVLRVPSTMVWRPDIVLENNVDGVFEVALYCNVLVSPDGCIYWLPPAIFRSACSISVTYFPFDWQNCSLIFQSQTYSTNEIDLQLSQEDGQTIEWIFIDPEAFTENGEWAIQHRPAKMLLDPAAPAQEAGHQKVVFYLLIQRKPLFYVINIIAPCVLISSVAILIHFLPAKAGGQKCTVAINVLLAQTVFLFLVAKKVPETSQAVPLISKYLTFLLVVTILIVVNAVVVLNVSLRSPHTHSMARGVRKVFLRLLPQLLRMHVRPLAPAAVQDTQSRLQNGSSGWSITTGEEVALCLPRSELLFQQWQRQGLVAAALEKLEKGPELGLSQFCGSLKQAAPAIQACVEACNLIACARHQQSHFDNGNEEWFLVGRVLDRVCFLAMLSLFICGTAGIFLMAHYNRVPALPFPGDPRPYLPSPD

Binder	decrease of apoptosis (CDC cell death) caused by humanized mAb35, at 0.15 µg/ml [1] [%]	decrease of the ratio of C5b-9 positive cells caused by humanized mAb35, at 0.15 µg/ml [1] [%]	binding result [2]
B1	> 37	> 60	
B2	> 37	> 60	
B3	> 37	> 60	
B4			binds
